Experiment [1] addresses T1, claudin-18.2 antigen (manufacturer: GenScript, batch number: R50092011) (UniProt P56856-2 1-261, limits assumed).
T1 construct: Bought antigen
T1 sequence (looked up): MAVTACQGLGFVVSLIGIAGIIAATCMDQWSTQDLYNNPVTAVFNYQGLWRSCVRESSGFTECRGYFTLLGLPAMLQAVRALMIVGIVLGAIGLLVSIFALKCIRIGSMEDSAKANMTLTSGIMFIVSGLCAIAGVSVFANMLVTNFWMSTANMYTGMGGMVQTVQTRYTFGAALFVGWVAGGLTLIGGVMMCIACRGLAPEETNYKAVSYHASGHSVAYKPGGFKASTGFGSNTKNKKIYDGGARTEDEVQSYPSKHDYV
Put plainly: ELISA, plate coated with claudin-18.2 antigen. How it is done: The ELISA plates were washed three times with PBST and blocked with 5% PBS-milk for 2 h at room temperature. The ELISA plate was washed three times with PBST, and the diluted antibodies were added to the ELISA plate, 30 μL per well, and incubated at room temperature for 60 min. The plates were washed three times with PBST and incubated with anti-human IgG-Fc-HRP (abcam, ab97225) for 50 min at room temperature. The plate was washed 12 times with PBST, and TMB was added, 30 μL per well. The reaction was terminated with stop solution and OD450 was read. The ELISA affinity EC50 was calculated.
(An ELISA detects its analyte on a solid surface through an enzyme-linked reagent.)

Experiment [2] deals with T1, claudin-18.2 antigen (manufacturer: …). Put plainly: Gator label-free kinetics, antibody loaded, antigen 2000-500 nM. Here is the method:
The GATOR instrument and associated software were opened and the Kinetics experimental mode was selected. After data collection, Kinetics fitting was performed to calculate the affinity kinetic parameters. The correlation coefficient R² of all antibodies in the Global fitting mode was greater than 0.95, which met the system suitability requirements and the results were reliable.

B1: 1B6-huVH5-HC (IgG1) huVL3 (antibody)
heavy: not shown
light: DIQMTQSPSSLSASVGDRVTITCRSSQSLFNSGNQKNYLTWYQQKPGKAPKLLIYWASTRESGVPSRFSGSGSGTDFTLTISSLQPEDFATYYCQNDYSYPLTFGGGTKLEIKRTVAAPSVFIFPPSDEQLKSGTASVVCLLNNFYPREAKVQWKVDNALQSGNSQESVTEQDSKDSTYSLSSTLTLSKADYEKHKVYACEVTHQGLSSPVTKSFNRGEC
notes: humanized 1B6, human IgG1, kappa
In turn, B1 yielded a half-maximal effective concentration (EC50) in experiment [1] of 0.035 mg/L. In experiment [2], this molecule displayed a dissociation constant Kd of 0.0768 µM, a koff of 0.00175 s⁻¹ and a kon of 22700 M⁻¹ s⁻¹.

B2: 1B6-huVH1huVL1 (antibody, human IgG4 S228P, kappa)
heavy: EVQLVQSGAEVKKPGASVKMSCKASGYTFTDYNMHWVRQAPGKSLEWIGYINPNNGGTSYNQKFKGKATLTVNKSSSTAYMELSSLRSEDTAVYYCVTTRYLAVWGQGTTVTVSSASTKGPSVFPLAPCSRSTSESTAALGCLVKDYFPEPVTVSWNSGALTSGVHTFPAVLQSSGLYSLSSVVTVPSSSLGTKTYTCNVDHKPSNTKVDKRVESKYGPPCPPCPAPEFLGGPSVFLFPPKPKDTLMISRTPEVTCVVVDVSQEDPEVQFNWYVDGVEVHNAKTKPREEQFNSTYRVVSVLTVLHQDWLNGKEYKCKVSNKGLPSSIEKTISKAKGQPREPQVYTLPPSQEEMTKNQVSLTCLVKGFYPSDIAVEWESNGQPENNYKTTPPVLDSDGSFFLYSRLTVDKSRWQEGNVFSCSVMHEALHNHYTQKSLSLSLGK
light: DIVMTQSPSSLSVSVGDRVTMTCKSSQSLFNSGNQKNYLTWYQQKPGKAPKLLIYWASTRESGVPDRFSGSGSGTDFTLTISSVQPEDFATYFCQNDYSYPLTFGGGTKLEIKRTVAAPSVFIFPPSDEQLKSGTASVVCLLNNFYPREAKVQWKVDNALQSGNSQESVTEQDSKDSTYSLSSTLTLSKADYEKHKVYACEVTHQGLSSPVTKSFNRGEC
notes: humanized 1B6, human IgG4, kappa
In experiment [1], B2 gave an EC50 of 0.0839 mg/L. In experiment [2], this molecule yielded a Kd of 0.0988 µM, a koff of 0.00222 s⁻¹ and a kon of 22400 M⁻¹ s⁻¹.

The term EC50 denotes the midpoint of the concentration-response curve. Read a low EC50 as higher potency in that assay. A word on the Kd: it is the equilibrium constant for the complex coming apart. A high value points to lower affinity. A word on the koff: it is the rate constant with which the complex falls apart. Read a low koff as slow dissociation. What is called kon is the rate constant with which the complex forms. A lower kon goes with slow association.

Values taken from patent US20250332197A1 (SUNSHINE LAKE PHARMA, published 2025).
